This is an account of results in publication PMC7979870.

The experiment deals with ALFA peptide and His8-tagged ZAC orthologue from Oryzias latipes (OlZAC) (Oryzias latipes). In words: negative staining EM with 2D classification; purified OlZAC reconstituted into NAPol amphipol, stained with 2% uranyl acetate, Talos L120C at 120 kV, 2D classification in RELION 3.0.

One may read the stoichiometry N as a count of units in the complex or per binding partner. Consider “ALFA peptide and His8-tagged ZAC orthologue from Oryzias latipes (OlZAC) (receptor)”, for which the stoichiometry N came out at 5.
